Target: the molecule itself
Experiment: SEC-SAXS

B1: CVS wt P3, recombinant (rabies virus CVS-11 phosphoprotein, residues 53-297) (natural protein)
chain: MKRLHLDDEKSSNLGEMVRVGEGKYREDFQMDEGEDPNLLFQSYLDNVGVQIVRQMRSGERFLKIWSQTVEEIVSYVTVNFPNPPRRSSEDKSTQTTGRELKKETTSAFSQRESQPSKARMVAQVAPGPPALEWSATNEEDDLSVEAEIAHQIAESFSKKYKFPSRSSGIFLYNFEQLKMNLDDIVKEAKNVPGVTRLAHDGSKIPLRCVLGWVALANSKKFQLLVEADKLSKIMQDDLNRYTSC
How did the “stoichiometry N” value turn out when B1 was run?
Its value is 2.

From article PMC12589655 (Nature Communications, 2025)
